Laboratory results taken from the supplement of paper PMC10065799, “High-throughput profiling of sequence recognition by tyrosine kinases and SH2 domains using bacterial peptide display” (eLife, 2023).

How the values were obtained:
Fes = Fes (UniProt P07332); assay: phosphorylation enrichment, bacterial display (enrichment ratio); higher = better substrate or ligand; peptides without Tyr show the background
Fyn = Fyn (UniProt P06241); assay: as above
Jak2 = Jak2 (UniProt O60674); assay: as above
EPHB1 = EPHB1 (UniProt P54762); assay: as above
Sequence of EPHB1 (P54762 whole entry, looked up): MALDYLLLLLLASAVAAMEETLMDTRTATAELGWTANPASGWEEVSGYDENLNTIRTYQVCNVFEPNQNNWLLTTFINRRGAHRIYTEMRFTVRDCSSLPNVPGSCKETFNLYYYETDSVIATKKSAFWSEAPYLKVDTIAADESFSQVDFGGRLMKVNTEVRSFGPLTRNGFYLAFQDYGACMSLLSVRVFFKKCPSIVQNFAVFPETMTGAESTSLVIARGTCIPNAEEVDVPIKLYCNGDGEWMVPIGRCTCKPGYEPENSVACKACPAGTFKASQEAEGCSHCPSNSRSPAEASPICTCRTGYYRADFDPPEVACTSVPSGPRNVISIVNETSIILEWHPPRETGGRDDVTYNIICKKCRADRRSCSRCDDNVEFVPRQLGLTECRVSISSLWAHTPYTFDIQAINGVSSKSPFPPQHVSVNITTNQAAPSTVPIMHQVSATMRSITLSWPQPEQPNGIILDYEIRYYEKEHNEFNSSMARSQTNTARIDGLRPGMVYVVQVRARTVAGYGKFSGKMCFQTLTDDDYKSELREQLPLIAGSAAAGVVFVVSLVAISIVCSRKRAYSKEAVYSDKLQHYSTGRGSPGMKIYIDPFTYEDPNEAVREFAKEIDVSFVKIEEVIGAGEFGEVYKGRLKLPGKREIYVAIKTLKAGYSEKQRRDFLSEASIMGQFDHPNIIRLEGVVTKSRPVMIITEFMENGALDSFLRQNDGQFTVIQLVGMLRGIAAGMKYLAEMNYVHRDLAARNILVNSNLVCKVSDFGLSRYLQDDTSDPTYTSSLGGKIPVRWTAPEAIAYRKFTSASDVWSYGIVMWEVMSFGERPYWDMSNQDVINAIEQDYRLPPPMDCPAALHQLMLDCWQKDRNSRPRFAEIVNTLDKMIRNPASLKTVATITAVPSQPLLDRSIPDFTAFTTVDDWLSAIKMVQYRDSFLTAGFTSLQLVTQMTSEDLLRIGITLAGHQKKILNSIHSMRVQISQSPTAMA

AncSZ = assay: as above
EPHB2 = EPHB2 (UniProt P29323); assay: as above
Sequence of EPHB2 (P29323 whole entry, looked up): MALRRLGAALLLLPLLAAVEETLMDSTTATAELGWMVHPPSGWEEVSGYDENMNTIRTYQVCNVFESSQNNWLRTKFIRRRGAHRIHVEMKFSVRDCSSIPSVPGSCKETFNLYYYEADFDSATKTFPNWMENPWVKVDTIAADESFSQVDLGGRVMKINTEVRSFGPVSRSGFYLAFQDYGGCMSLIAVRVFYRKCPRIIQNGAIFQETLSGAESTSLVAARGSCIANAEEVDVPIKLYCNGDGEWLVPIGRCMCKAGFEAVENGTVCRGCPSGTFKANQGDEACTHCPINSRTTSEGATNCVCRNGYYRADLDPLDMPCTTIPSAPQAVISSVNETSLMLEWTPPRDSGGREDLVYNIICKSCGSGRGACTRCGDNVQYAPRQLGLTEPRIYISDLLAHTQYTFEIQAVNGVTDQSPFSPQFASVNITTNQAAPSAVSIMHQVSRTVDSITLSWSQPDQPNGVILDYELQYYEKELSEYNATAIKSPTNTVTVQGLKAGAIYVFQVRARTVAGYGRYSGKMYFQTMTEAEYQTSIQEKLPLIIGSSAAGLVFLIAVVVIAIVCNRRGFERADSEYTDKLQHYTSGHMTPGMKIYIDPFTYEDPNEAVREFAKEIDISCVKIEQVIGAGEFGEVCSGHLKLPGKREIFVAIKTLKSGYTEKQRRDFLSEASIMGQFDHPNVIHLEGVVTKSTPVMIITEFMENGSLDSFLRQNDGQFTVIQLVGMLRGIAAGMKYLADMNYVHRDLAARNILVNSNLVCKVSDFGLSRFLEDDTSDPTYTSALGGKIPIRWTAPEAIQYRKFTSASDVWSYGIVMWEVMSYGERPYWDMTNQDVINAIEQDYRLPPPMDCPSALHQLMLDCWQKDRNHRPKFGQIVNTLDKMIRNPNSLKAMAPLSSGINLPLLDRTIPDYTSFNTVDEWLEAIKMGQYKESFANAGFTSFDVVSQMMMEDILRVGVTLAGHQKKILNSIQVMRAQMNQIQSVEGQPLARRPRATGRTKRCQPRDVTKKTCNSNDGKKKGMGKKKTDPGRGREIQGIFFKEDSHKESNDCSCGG

MERTK = MERTK (UniProt Q12866); assay: as above
Sequence of MERTK (Q12866 whole entry, looked up): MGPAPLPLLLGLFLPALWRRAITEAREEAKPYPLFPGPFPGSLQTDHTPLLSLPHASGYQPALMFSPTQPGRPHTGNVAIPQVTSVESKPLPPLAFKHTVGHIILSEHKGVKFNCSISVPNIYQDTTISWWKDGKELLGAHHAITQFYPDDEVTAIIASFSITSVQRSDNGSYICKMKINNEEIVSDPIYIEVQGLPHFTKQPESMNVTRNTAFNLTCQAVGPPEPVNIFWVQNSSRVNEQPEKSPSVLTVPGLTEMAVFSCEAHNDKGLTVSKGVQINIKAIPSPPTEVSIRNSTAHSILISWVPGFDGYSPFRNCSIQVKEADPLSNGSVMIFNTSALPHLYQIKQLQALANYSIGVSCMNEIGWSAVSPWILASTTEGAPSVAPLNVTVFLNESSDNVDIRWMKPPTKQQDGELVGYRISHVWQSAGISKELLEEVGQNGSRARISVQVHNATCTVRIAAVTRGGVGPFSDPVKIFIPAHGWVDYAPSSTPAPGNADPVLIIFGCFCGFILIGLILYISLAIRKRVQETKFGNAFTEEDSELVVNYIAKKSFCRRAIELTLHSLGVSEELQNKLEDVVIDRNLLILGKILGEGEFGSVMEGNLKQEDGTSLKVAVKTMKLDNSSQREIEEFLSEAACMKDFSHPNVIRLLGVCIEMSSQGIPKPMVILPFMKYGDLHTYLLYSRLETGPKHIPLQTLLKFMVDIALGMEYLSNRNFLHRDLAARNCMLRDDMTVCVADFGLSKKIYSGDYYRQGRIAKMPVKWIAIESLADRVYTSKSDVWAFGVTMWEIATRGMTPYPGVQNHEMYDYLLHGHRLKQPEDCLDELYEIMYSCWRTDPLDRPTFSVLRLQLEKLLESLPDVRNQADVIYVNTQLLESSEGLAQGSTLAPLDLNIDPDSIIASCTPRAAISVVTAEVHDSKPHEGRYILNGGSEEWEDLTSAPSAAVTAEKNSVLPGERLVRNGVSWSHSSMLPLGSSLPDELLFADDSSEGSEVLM

c-Src = assay: as above
Fer (mouse) = assay: as above
FGFR1 = FGFR1 (UniProt P11362); assay: as above
FGFR3 = FGFR3 (UniProt P22607); assay: as above
Sequence of FGFR3 (P22607 whole entry, looked up): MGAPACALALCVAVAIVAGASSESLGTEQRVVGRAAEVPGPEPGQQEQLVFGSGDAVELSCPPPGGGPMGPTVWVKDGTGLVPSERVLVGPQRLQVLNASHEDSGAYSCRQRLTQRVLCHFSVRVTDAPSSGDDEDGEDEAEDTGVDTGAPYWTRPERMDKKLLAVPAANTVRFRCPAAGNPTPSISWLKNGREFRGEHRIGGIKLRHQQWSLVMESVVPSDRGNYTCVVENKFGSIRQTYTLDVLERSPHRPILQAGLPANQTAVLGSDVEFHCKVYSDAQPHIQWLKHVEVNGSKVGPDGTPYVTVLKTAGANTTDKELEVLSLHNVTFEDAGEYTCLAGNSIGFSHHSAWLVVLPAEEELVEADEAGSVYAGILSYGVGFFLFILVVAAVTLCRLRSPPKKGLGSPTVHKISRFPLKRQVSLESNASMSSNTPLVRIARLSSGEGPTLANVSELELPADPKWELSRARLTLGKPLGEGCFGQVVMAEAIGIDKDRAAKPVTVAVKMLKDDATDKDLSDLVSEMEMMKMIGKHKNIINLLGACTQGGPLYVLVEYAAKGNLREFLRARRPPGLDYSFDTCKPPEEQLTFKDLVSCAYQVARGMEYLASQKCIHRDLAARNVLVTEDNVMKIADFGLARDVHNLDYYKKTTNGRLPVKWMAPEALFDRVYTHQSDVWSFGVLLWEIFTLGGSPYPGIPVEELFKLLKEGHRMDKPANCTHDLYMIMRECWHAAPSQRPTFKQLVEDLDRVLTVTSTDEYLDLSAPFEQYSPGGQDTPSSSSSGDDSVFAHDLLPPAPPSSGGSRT

Hck = Hck (UniProt P08631); assay: as above
Sequence of Hck (P08631 whole entry, looked up): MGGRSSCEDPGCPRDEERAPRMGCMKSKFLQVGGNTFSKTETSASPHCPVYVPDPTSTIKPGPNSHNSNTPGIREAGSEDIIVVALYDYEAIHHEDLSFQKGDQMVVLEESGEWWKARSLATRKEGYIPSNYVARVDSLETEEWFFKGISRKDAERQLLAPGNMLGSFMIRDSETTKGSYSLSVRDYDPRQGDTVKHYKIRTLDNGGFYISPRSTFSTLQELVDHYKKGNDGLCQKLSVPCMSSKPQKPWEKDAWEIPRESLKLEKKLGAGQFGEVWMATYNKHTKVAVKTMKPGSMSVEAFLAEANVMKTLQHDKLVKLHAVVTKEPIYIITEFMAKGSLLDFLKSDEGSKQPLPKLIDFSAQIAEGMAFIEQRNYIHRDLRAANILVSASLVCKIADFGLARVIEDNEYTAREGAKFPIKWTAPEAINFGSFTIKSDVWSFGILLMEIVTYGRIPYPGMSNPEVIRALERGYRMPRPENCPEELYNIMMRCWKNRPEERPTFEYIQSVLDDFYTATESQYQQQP

c-Abl (mouse) = assay: as above
Grb2 SH2 = Grb2 SH2 (UniProt P62993); assay: SH2 binding enrichment of the phosphorylated peptide, bacterial display (enrichment ratio); higher = better substrate or ligand; peptides without Tyr show the background
Sequence of Grb2 SH2 (P62993 whole entry, looked up): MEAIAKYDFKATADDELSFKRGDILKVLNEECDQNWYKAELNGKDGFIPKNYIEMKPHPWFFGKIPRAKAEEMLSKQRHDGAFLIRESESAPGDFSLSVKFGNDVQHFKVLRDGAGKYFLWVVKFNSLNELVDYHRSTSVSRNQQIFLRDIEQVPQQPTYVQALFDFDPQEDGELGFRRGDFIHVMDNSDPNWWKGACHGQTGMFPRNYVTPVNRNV

c-Src SH2 = assay: as above
SHP2-C SH2 = assay: as above
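Wherever SH2 binding enrichment of the phosphorylated peptide, bacterial display is given: peptide library displayed on the E. coli surface as eCPX fusions, selected cells deep-sequenced, score is each peptide's frequency after selection divided by its frequency in the input.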
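Wherever phosphorylation enrichment, bacterial display is given: 11-residue human phosphosite peptides and single-mutation variants displayed on the E. coli surface, counted by deep sequencing, each peptide's frequency after selection divided by its frequency in the unselected input library; frequency after pTyr selection over input frequency; kinase dosed for 20-30% of maximal phosphorylation in three min.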

| Sequence | phosphorylation enrichment (Fes) | phosphorylation enrichment (Fyn) | phosphorylation enrichment (Jak2) | phosphorylation enrichment (EPHB1) | phosphorylation enrichment (AncSZ) | phosphorylation enrichment (EPHB2) | phosphorylation enrichment (MERTK) | phosphorylation enrichment (c-Src) | phosphorylation enrichment (Fer (mouse)) | phosphorylation enrichment (FGFR1) | phosphorylation enrichment (FGFR3) | phosphorylation enrichment (Hck) | phosphorylation enrichment (c-Abl (mouse)) | SH2 binding enrichment (Grb2 SH2) | SH2 binding enrichment (c-Src SH2) | SH2 binding enrichment (SHP2-C SH2) |
| --- | --- | --- | --- | --- | --- | --- | --- | --- | --- | --- | --- | --- | --- | --- | --- | --- |
| DSEIRYLSADS [TTF1_Y476] | 0.933 | 0.526 | 0.868 | 0.489 | 0.964 | 0.547 | 0.461 | 0.51 | 0.551 | 0.546 | 0.709 | 0.458 | 0.727 | 0.887 | 0.633 | 0.914 |
| PSNTDYPGPHS [TP63_Y171] | 0.909 | 0.438 | 0.768 | 0.589 | 0.809 | 0.661 | 0.552 | 0.5 | 0.582 | 0.511 | 0.722 | 0.482 | 1.01 | 0.792 | 0.401 | 0.58 |
| DFDNLYYWDQD [ERBB2_Y1221_A1216D] | 1.96 | 6.81 | 1.86 | 4.08 | 2.68 | 3.3 | 7.57 | 6.09 | 3.8 | 9.53 | 9.13 | 5.31 | 0.973 | 0.808 | 0.453 | 0.462 |
| DVLPEYKLQAP [KCNH2_Y388] | 0.861 | 0.53 | 0.659 | 0.548 | 0.911 | 0.557 | 0.432 | 0.405 | 0.427 | 0.48 | 0.728 | 0.519 | 0.693 | 1.02 | 0.508 | 0.625 |
| YLAAIYPTVGQ [NF1_Y2508_T2507I] | 0.89 | 0.513 | 0.671 | 0.511 | 0.94 | 0.514 | 1.37 | 0.528 | 0.58 | 1.16 | 0.88 | 0.57 | 0.597 | 0.747 | 1.39 | 0.986 |
| VCDSNYSASRW [LRP5_Y1552_D1551N] | 0.864 | 0.483 | 0.618 | 1.62 | 0.719 | 1.85 | 0.426 | 0.396 | 0.513 | 0.509 | 0.626 | 0.508 | 0.507 | 0.872 | 0.648 | 0.7 |
| LQFKNYQQLFD [MAN2A1_Y442] | 0.985 | 0.379 | 0.882 | 0.641 | 0.944 | 0.532 | 0.358 | 0.377 | 0.391 | 0.453 | 0.679 | 0.527 | 0.636 | 0.76 | 1.58 | 0.784 |
| TEQDPSNNIVR [MMUT_Y364_Y364S] | 1 | 0.492 | 0.771 | 0.468 | 0.824 | 0.46 | 0.464 | 0.492 | 0.408 | 0.55 | 0.557 | 0.408 | 0.768 | 0.969 | 0.5 | 0.863 |
| RSAGKYDVFLI [MECP2_Y120_YF] | 0.758 | 0.556 | 0.775 | 0.697 | 0.558 | 0.563 | 0.561 | 0.533 | 0.618 | 0.352 | 0.748 | 0.714 | 0.85 | 1.03 | 0.914 | 0.677 |
| ALAPKYHGGGG [HBB_Y146_H144P] | 0.506 | 0.31 | 0.423 | 0.315 | 0.314 | 0.356 | 0.386 | 0.389 | 0.332 | 0.327 | 0.248 | 0.348 | 0.423 | 0.607 | 0.341 | 0.411 |
| NPQKSYFIHLY [WAS_Y83_R86H] | 1.23 | 0.589 | 1.18 | 0.588 | 1.12 | 0.586 | 0.424 | 0.407 | 0.517 | 0.46 | 0.782 | 0.559 | 0.864 | 1.29 | 0.804 | 1.02 |
| ATRKAYGQALA [TKT_Y321] | 0.612 | 0.335 | 0.481 | 0.31 | 0.468 | 0.348 | 0.432 | 0.366 | 0.36 | 0.391 | 0.395 | 0.412 | 0.415 | 0.965 | 0.622 | 0.594 |
| AGQKDYDRLRP [RAC3_Y64_E62K] | 0.761 | 0.52 | 0.546 | 0.501 | 0.662 | 0.543 | 0.358 | 0.36 | 0.787 | 0.462 | 0.572 | 0.47 | 0.627 | 0.953 | 0.63 | 0.688 |
| RPFFLYVAFHD [SGSH_Y174] | 1.58 | 0.381 | 1.54 | 0.731 | 1.28 | 0.579 | 0.442 | 0.43 | 0.47 | 0.503 | 0.941 | 0.58 | 1.24 | 0.847 | 0.581 | 0.377 |
| EAGKVYLKAPM [CBFB_Y96] | 0.939 | 0.492 | 0.669 | 0.443 | 0.754 | 0.524 | 0.602 | 0.434 | 0.411 | 0.433 | 0.609 | 0.496 | 0.504 | 0.956 | 0.503 | 0.609 |
| AAVPAYDKIRV [STXBP2_Y401] | 0.714 | 0.344 | 0.874 | 0.372 | 0.64 | 0.355 | 0.48 | 0.452 | 2.02 | 0.321 | 0.541 | 1.36 | 0.569 | 0.803 | 4.85 | 0.503 |
| VTQEPYELYCE [CBL_Y368_Q367P] | 1.13 | 0.761 | 0.999 | 0.763 | 1.65 | 0.621 | 0.461 | 1.24 | 0.86 | 0.554 | 0.794 | 0.717 | 0.74 | 1.01 | 0.695 | 0.861 |

| Sequence | phosphorylation enrichment (Fes) | phosphorylation enrichment (Fyn) | phosphorylation enrichment (Jak2) | phosphorylation enrichment (EPHB1) | phosphorylation enrichment (AncSZ) | phosphorylation enrichment (EPHB2) | phosphorylation enrichment (MERTK) | phosphorylation enrichment (c-Src) | phosphorylation enrichment (Fer (mouse)) | phosphorylation enrichment (FGFR1) | phosphorylation enrichment (FGFR3) | phosphorylation enrichment (Hck) | phosphorylation enrichment (c-Abl (mouse)) | SH2 binding enrichment (Grb2 SH2) | SH2 binding enrichment (c-Src SH2) | SH2 binding enrichment (SHP2-C SH2) |
| --- | --- | --- | --- | --- | --- | --- | --- | --- | --- | --- | --- | --- | --- | --- | --- | --- |
| GVKLTYGDAQN [SLC28A1_Y404] | 0.872 | 0.479 | 1.63 | 0.379 | 0.726 | 0.45 | 0.397 | 0.499 | 0.397 | 0.53 | 0.473 | 0.369 | 0.813 | 0.969 | 0.472 | 0.54 |
| YLEKYYKFGSR [NNMT_Y25] | 0.779 | 0.501 | 0.604 | 0.453 | 0.69 | 0.48 | 0.407 | 0.654 | 0.508 | 0.524 | 0.553 | 0.473 | 0.59 | 0.9 | 0.523 | 0.604 |
| FGFPGYQCKHF [TIMP3_Y177_S179C_YF] | 0.789 | 0.445 | 0.831 | 0.337 | 0.695 | 0.514 | 0.542 | 0.548 | 0.473 | 0.517 | 0.535 | 0.506 | 0.716 | 1.37 | 0.83 | 0.703 |
| DQNVEYKGTVS [FHL1_Y117_W122S] | 0.828 | 0.422 | 0.618 | 0.508 | 0.801 | 0.616 | 0.452 | 0.444 | 0.468 | 0.525 | 0.566 | 0.495 | 0.624 | 0.867 | 0.53 | 0.704 |
| LANNEYYFRVC | 1.27 | 0.743 | 1.51 | 0.682 | 1.6 | 0.993 | 0.823 | 0.516 | 0.62 | 3.72 | 3.11 | 0.794 | 0.573 | 0.539 | 0.42 | 0.562 |
| KEKLCYVAPDF [ACTA1_Y220_L223P] | 0.836 | 0.424 | 1.18 | 0.558 | 1.4 | 0.637 | 0.656 | 0.581 | 0.419 | 0.635 | 0.603 | 0.489 | 5.43 | 0.971 | 0.724 | 0.731 |
| PLQNTYNFNVL [SLC4A1_Y553_K551N_YF] | 1.43 | 1.67 | 0.959 | 0.798 | 0.891 | 0.756 | 0.634 | 2.52 | 0.812 | 0.803 | 0.616 | 0.57 | 0.893 | 0.85 | 0.624 | 1.1 |
| RLLRGYDQSAF [HLA-C_Y137_YF] | 0.592 | 0.416 | 0.628 | 0.422 | 0.669 | 0.526 | 0.443 | 0.459 | 0.502 | 0.412 | 0.712 | 0.439 | 0.708 | 1.26 | 0.758 | 0.953 |
| ANNEFYFQVCA | 1.37 | 0.478 | 1.25 | 0.656 | 1.26 | 0.588 | 0.43 | 0.486 | 0.601 | 0.755 | 0.939 | 0.536 | 0.818 | 0.741 | 0.337 | 0.662 |
| SHLLRYLSWTV [CLCNKB_Y93] | 1.23 | 0.468 | 1.06 | 0.553 | 1.24 | 0.528 | 0.37 | 0.368 | 0.478 | 0.684 | 0.7 | 0.544 | 0.781 | 0.9 | 0.553 | 0.724 |
| VDTPMYATMQR [TPO_Y55_A53P] | 0.942 | 3.58 | 0.593 | 1.1 | 0.826 | 0.838 | 1.81 | 3.3 | 0.706 | 0.52 | 0.684 | 5.46 | 2.11 | 0.803 | 2.09 | 1.27 |
| MFKPMYALFRT [HUWE1_Y4078_N4075K] | 0.982 | 0.779 | 0.704 | 0.963 | 0.921 | 0.621 | 2.87 | 1.75 | 0.815 | 0.606 | 0.698 | 0.872 | 1.85 | 1.35 | 1.52 | 1.86 |
| AALLNYKAGRD [GRIN2A_Y737_V734L] | 0.687 | 0.494 | 0.508 | 0.409 | 0.623 | 0.465 | 0.468 | 0.472 | 0.384 | 0.508 | 0.494 | 0.527 | 0.454 | 0.861 | 0.523 | 0.762 |
| RHLLRYLSWTV [CLCNKB_Y93_S88R] | 1.29 | 0.507 | 0.982 | 0.712 | 0.883 | 0.591 | 0.379 | 0.516 | 0.594 | 0.532 | 0.521 | 0.614 | 0.969 | 1.55 | 1.02 | 1.05 |
| HNLPIYEGYAL [ACTA1_Y168_V165L] | 1.16 | 11.6 | 0.566 | 17 | 1.24 | 22.7 | 6.51 | 6.97 | 19.3 | 0.547 | 0.64 | 9.09 | 2.79 | 0.835 | 2.85 | 0.714 |
| VLNDAYENLTR [SYNE2_Y3255] | 0.859 | 0.524 | 0.665 | 0.531 | 1.08 | 0.759 | 0.379 | 0.391 | 0.581 | 0.559 | 0.761 | 0.521 | 0.605 | 3.35 | 2.25 | 0.917 |
